This note sets out measurements from the supplement of paper PMC9170038.

This series concerns MS2 coat protein. The experiment in a line: apparent KD of MS2 coat protein; designed switch direction (-1 OFF switch, 1 ON switch): 1; higher = weaker reporter binding. In a few lines: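 Designed RNA switches with common flanks were transcribed on Illumina chips by stalled E. coli RNA polymerase and titrated with SNAP-549-labelled MS2 coat protein, from 0.7 or 1.5 nM doubling to 3 µM, in Tris-HCl pH 7.5 buffer with KCl, MgCl2, BSA, DTT, tRNA and Tween-20. Steps lasted 0.8–1.5 h (lowest) to 10–20 min (highest). Titrations ran without input, with 200 uM small-molecule ligand, or with an oligonucleotide input. Normalised cluster fluorescence was curve-fitted, and apparent KD is the per-design median over clusters.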

The mark [1] stands for this setting: input ligand: microRNA oligo, concentration not stated.
Where [2] appears, read: Eterna round: R95, input ligand: FMN 200 uM.
Where [3] appears, read: Eterna round: R95, input ligand: microRNA oligo, concentration not stated.
The mark [4] stands for this setting: Eterna round: R95, input ligand: none.

Take “GGACGUCAUCUCAAUAAUUAAACAUGAGGAUCACCCAUGUCACAGGAUAUGGAUCCUAAUUGGAUCCAGAAGGGUGUGACGUCC [Fiskers NG3ss - 40] (Eterna round: R96, puzzle: Same State NG 3)”: the “apparent KD of MS2 coat protein” value stood at 54.3 nM (input ligand: FMN 200 uM), 56 nM under setting [1] and 66.1 nM (input ligand: none).

Regarding “GGUCCAGCCUGAGCUGGACAAAAGCAUGUACAUGAGGAUCACCCAUGUUCAUGUACAAGCUUUUUGCUCGUCUUAAU [salish99_208a_r3_036] (puzzle: Sensor for hsa-mir-208a)”, the “apparent KD of MS2 coat protein” value reads like this: under setting [2], 525 nM; under setting [3], 15 nM; under setting [4], 492 nM.

Take “UAGAAACAUGAGGAUCACCCAUGUGGGUUAAACACAGGAUAUCACACCAAACGAAAGGCGUGAGAAGGGUGACCGU [Xeonreais] (puzzle: Same State 1)”: the “apparent KD of MS2 coat protein” value runs as follows: under setting [2], 62 nM; under setting [3], 41.2 nM; under setting [4], 39.1 nM.

On to “ACCCGCGGGCCACAUGAGGAUCACCCAUGUGACCGGUGAUCCAAGGAUAUACGUGUGAUAGACGCGUAGAAGGUGGCCAAAACU [Rirazaedat] (Eterna round: R96, puzzle: Same State NG 3)”, for which the “apparent KD of MS2 coat protein” value reads like this: (input ligand: FMN 200 uM) 127 nM; under setting [1], 29.3 nM; (input ligand: none) 31.9 nM.

On to “AAACACAUGAGGAUCACCCAUGUAGCACCAUUGAGGCGCACAUAGGAUAUCCGGUCCAAAAGACCGGAGAAGGGUGAAAGAAAA [Veandi] (Eterna round: R96, puzzle: Same State NG 3)”, for which the “apparent KD of MS2 coat protein” value (input ligand: FMN 200 uM) was found to be 59.7 nM, the “apparent KD of MS2 coat protein” value under setting [1] is 371 nM and the “apparent KD of MS2 coat protein” value (input ligand: none) was 328 nM.

With “AUACAUGAGGAUCACCCAUGUAAUUAAUUAACUAGUAAGAUCUAGGAUAUCAGCUCGUUUAGAGCUGAGAAGGAGAUCACAUGU [SSNG3/21-A3] (Eterna round: R96, puzzle: Same State NG 3)”, the “apparent KD of MS2 coat protein” value under setting [1] amounted to 28.8 nM.

As to “GCUGCAAGGGCAGGAUAUGGGUUCAGAGCGGAAGUGCGCUUUGAUACAUGAGGAUCACCCAUGUCCCAGAAGGGCCCAUGCGGC [Arredibi] (Eterna round: R96, puzzle: Same State NG 2)”, the “apparent KD of MS2 coat protein” value was found to be 19.1 nM (input ligand: FMN 200 uM), 78.4 nM under setting [1] and 113 nM (input ligand: none).

In the case of “GAAAAGGCAACGCAGGAUAUGAAAGGUGAAACAUGAGGAUCACCCAUGUGCUACCUUCCGAUAAAUCAGAAGGGCGACGCCAAAA [Leceave] (puzzle: Same State 2)”, the “apparent KD of MS2 coat protein” value amounted to 15.4 nM under setting [2], 15.6 nM under setting [3] and 19.4 nM under setting [4].

Consider “GGUAGGUUACUACCAGACAUGAGGAUCACCCAUGUAAAUGGGAAGGAUAUGGUACCGUUUCGGUACCAGAAGGUCCUAAGUGAG [JL SSNG3 1.48] (Eterna round: R96, puzzle: Same State NG 3)”, for which the “apparent KD of MS2 coat protein” value (input ligand: FMN 200 uM) is 667 nM, the “apparent KD of MS2 coat protein” value under setting [1] came out at 367 nM and the “apparent KD of MS2 coat protein” value (input ligand: none) stood at 2280 nM.

Regarding “CCCUCACAUGAGGAUCACCCAUGUCCUAGCAGGUCAGGAUAUAGCCCGCAUCCGCUGCGGCUAGAAGGGACAGCUG [JR_SS001_Sub610] (Eterna round: R96, puzzle: Same State 1)”, the “apparent KD of MS2 coat protein” value (input ligand: FMN 200 uM) was 148 nM, the “apparent KD of MS2 coat protein” value under setting [1] amounted to 135 nM and the “apparent KD of MS2 coat protein” value (input ligand: none) stood at 176 nM.

As for “GUACUACAUGAGGAUCACCCAUGUACAAAGGUACGAGGAUAUGCAUGGACGAAAGUUGGUGCAGAAGGCGUGGUAC [Pin2Pin #5] (puzzle: Same State 1)”, the “apparent KD of MS2 coat protein” value by setting is: under setting [2], 21.8 nM; under setting [3], 24.6 nM; under setting [4], 22.9 nM.

Take “GAAAAGACAUGAGGAUCACCCAUGUGAAAGCCUAAGGGCCCACAGGAUAUACAGUGAAAAGCACUGUAGAAGGGUGAUAAAGAC [Ordibidi] (Eterna round: R96, puzzle: Same State NG 3)”: the “apparent KD of MS2 coat protein” value reads like this: (input ligand: FMN 200 uM) 228 nM; under setting [1], 271 nM; (input ligand: none) 172 nM.

Regarding “CUGAGGAAGAGAGAGGAUAUCCAAAGGAAAACAUGAGGAUCACCCAUGUAAAAGGUAGGAAAUUGGGAGAAGGCUCAAGAGAGAG [salish99-ss2-068] (Eterna round: R96, puzzle: Same State 2)”, the “apparent KD of MS2 coat protein” value reads like this: (input ligand: FMN 200 uM) 32.3 nM; under setting [1], 38.3 nM; (input ligand: none) 39.3 nM.

Turning to “AGUCCUGAAUAAAUUAAACAGAGACAUGUACAUGAGGAUCACCCAUGUCAUGUGCAAGUUUUUUGCUCGUCAUAUAA [Sensorship 17 - Jieux - Sensor for hsa-mir-208a] (puzzle: Sensor for hsa-mir-208a)”, the “apparent KD of MS2 coat protein” value turned out to be 13.7 nM under setting [2], 10.7 nM under setting [3] and 14.9 nM under setting [4].

With “AUUAUACAUGAGGAUCACCCAUGUAAUUAAUCUAGUAAGAUCUAGGAUAUCAGCUCGAUUAGAGCUGAGAAGGAGAUCACAUGU [SSNG3/20-D2] (Eterna round: R96, puzzle: Same State NG 3)”, the “apparent KD of MS2 coat protein” value under setting [1] is 42.9 nM.

As to “GGAGCCGGCCUAGGAUAUUUCAUAAAGAAACAUGAGGAUCACCCAUGUAGGCCAGAAGGCCUUGGGAAGAAGGAGGUCGGCUCC [Loop Effect - G27] (Eterna round: R96, puzzle: Same State NG 2)”, the “apparent KD of MS2 coat protein” value turned out to be 12.4 nM (input ligand: FMN 200 uM), 29 nM under setting [1] and 28.7 nM (input ligand: none).

In the case of “AGUGAACAUGAGGAUCACCCAUGUGAGAGAAGUGUAGGAUAUGUGAGGAGCAGAGGAGGGACAGAAGGACAUGGAG [JR_SS!_Sub074] (puzzle: Same State 1)”, the “apparent KD of MS2 coat protein” value was 32.1 nM under setting [2], 38 nM under setting [3] and 51.8 nM under setting [4].

Take “GACCGCGAGGAAGGAUAUGGAGCCUUAUUGGCUCCAGAAGGUCCAUAAAGGACAUGAGGAUCACCCAUGUGGGCUGAAGCGGUC [Fiskers NG1ss - 9] (Eterna round: R96, puzzle: Same State NG 1)”: the “apparent KD of MS2 coat protein” value (input ligand: FMN 200 uM) came out at 22 nM, the “apparent KD of MS2 coat protein” value under setting [1] amounted to 25.8 nM and the “apparent KD of MS2 coat protein” value (input ligand: none) turned out to be 35.1 nM.

For the sequence “AGAGAACAUGAGGAUCACCCAUGUAGGAUGGGCAUAGGAUAUAGAAGGAUGAAGGAGAAACUAGAAGGAUGAUGGA [JR_SS1_Sub076] (puzzle: Same State 1)”, the “apparent KD of MS2 coat protein” value by setting is: under setting [2], 107 nM; under setting [3], 145 nM; under setting [4], 235 nM.

Consider “GCGAAGAGGUAAGGAUAUUCAUGGCGGAGACAUGAGGAUCACCCAUGUAGGAGACGAAAUCAAAGGGAGAAGGUACCAGGACGC [AK SSNG2-V2-15] (Eterna round: R96, puzzle: Same State NG 2)”, for which the “apparent KD of MS2 coat protein” value was found to be 82.2 nM (input ligand: FMN 200 uM), 159 nM under setting [1] and 160 nM (input ligand: none).

In the case of “AUAAGAAACACAGGAUAUACCGCACUUAACGCGGUAGAAGGGUGGGACAUGAGGAUCACCCAUGUGGCCCGGGCGCCGGACCGC [Edquzative] (Eterna round: R96, puzzle: Same State NG 1)”, the “apparent KD of MS2 coat protein” value is, setting by setting: (input ligand: FMN 200 uM) 556 nM; under setting [1], 10 nM; (input ligand: none) 122 nM.

Consider “AUAGUUUCCGAAGGAUAUGAUGAGGAUCACCCAUCAGAAGGUUGGCUAUUGGGCUGACAUGAGGAUCACCCAUGUUCCGGUGUU (Eterna round: R96, puzzle: Same State NG 1)”, for which the “apparent KD of MS2 coat protein” value was determined as 33.7 nM (input ligand: FMN 200 uM), 31.9 nM under setting [1] and 43.3 nM (input ligand: none).

With “UGGAAGAAUUAAGGAUAUCGAGUACAUAUGUUUAACAUGAGGAUCACCCAUGUGGGUUGCGGUAUCGAGAAGGUAAAUUACAAG [Mat - same State NG 2 - JL mod - D61] (Eterna round: R96, puzzle: Same State NG 2)”, the “apparent KD of MS2 coat protein” value (input ligand: FMN 200 uM) is 44.6 nM, the “apparent KD of MS2 coat protein” value under setting [1] stood at 40.5 nM and the “apparent KD of MS2 coat protein” value (input ligand: none) was determined as 44 nM.

With “GCCGCACAUGAGGAUCACCCAUGUAAUUACAUGGGAGGAUAUCAGUGCUCGAAAGAGCACUGAGAAGGCCUGAGGC [SS1 - Omei A v1] (puzzle: Same State 1)”, the “apparent KD of MS2 coat protein” value under setting [2] stood at 296 nM, the “apparent KD of MS2 coat protein” value under setting [3] was determined as 32.2 nM and the “apparent KD of MS2 coat protein” value under setting [4] was 28.8 nM.

Consider “GAGCCAGUCCGAGGAUAUUCACAUGAGGAUCACCCAUGUAGGCUCAGAAAAGAAAAGGAGCCUUGGGAGAAGGCGGACUGGCUC [Xeonanisa<<8] (Eterna round: R96, puzzle: Same State NG 2)”, for which the “apparent KD of MS2 coat protein” value is, setting by setting: (input ligand: FMN 200 uM) 6.35 nM; under setting [1], 9.87 nM; (input ligand: none) 13.3 nM.

Turning to “GGAAUAUUUACAGGAUAUGAUUUGUAAAUUCGAUCAGAAGGGUGGAUGUCUUACACGGUUUGUUACAUGAGGAUCACCCAUGUC [SameState NG1 #12] (Eterna round: R96, puzzle: Same State NG 1)”, the “apparent KD of MS2 coat protein” value was found to be 452 nM (input ligand: FMN 200 uM), 253 nM under setting [1] and 376 nM (input ligand: none).

As for “GUGAAGAAUUAAGGAUAUCGAGUCAAGAUGUUAAACAUGAGGAUCACCCAUGUGGGUUGCGGUAUCGAGAAGGUAAAUUACGGG [salish99_SSNG2_r04_503] (Eterna round: R96, puzzle: Same State NG 2)”, the “apparent KD of MS2 coat protein” value turned out to be 34.6 nM (input ligand: FMN 200 uM), 27.6 nM under setting [1] and 33.2 nM (input ligand: none).

As for “GUACUACAUGAGGAUCACCCAUGUACAAAUGUACGAGGAUAUGCAUGGACGAAAGUUGGUGCAGAAGGCGUAGUAC [Pin2Pin #4] (puzzle: Same State 1)”, the “apparent KD of MS2 coat protein” value under setting [3] came to 27.1 nM.
